The record followed here is patent US12351616B2, “Peptides and combination of peptides for use in immunotherapy against esophageal cancer and other cancers” (Immatics Biotechnologies GmbH, priority 2015, dated 2025).

This assay has as its target HLA-A*02:01 (Homo sapiens, UniProt P04439, D140Y/D185E/D98H/E176V/E277Q/G131W/G231S/I119V/I121R/I166T/I218V/L300P/L318F/N151K/N90K/P208A/P217A/Q86G/Q94H/R138H/R169H/T345S). Description: MHC binding assay: UV-ligand exchange with β2m ELISA. The settings on record: peptide exchange yield, binding to HLA-A*02:01. The text has this: Candidate peptides for T cell based therapies according to the present invention were further tested for their MHC binding capacity (affinity). The individual peptide-MHC complexes were produced by UV-ligand exchange, where a UV-sensitive peptide is cleaved upon UV-irradiation, and exchanged with the peptide of interest as analyzed. Only peptide candidates that can effectively bind and stabilize the peptide-receptive MHC molecules prevent dissociation of the MHC complexes. To determine the yield of the exchange reaction, an ELISA was performed based on the detection of the light chain (β2m) of stabilized MHC complexes. The assay was performed as generally described in Rodenko et al. (Rodenko et al., 2006).
96 well MAXISorp plates (NUNC) were coated over night with 2 ug/ml streptavidin in PBS at room temperature, washed 4× and blocked for 1 h at 37° C. in 2% BSA containing blocking buffer. Refolded HLA-A*02:01/MLA-001 monomers served as standards, covering the range of 15-500 ng/ml. Peptide-MHC monomers of the UV-exchange reaction were diluted 100 fold in blocking buffer. Samples were incubated for 1 h at 37° C., washed four times, incubated with 2 ug/ml HRP conjugated anti-β2m for 1 h at 37° C., washed again and detected with TMB solution that is stopped with […]. Absorption was measured at 450 nm. Candidate peptides that show a high exchange yield (preferably higher than 50%, most preferred higher than 75%) are generally preferred for a generation and production of antibodies or fragments thereof, and/or T cell receptors or fragments thereof, as they show sufficient avidity to the MHC molecules and prevent dissociation of the MHC complexes.
With “3 (TASAITPSV; listed as Homo sapiens) [compound 3]”, the Peptide exchange result was “+++ (≥50 = +++)”.

Turning to “7 (SIFEGLLSGV; listed as Homo sapiens) [compound 7]”, the Peptide exchange entry is recorded as “++ (≥20% = ++)”.

“8 (ALLDGGSEAYWRV; listed as Homo sapiens) [compound 8]”: the Peptide exchange result is “+++ (≥50 = +++)”.

Regarding “9 (HLIAEIHTA; listed as Homo sapiens) [compound 9]”, the Peptide exchange entry was “+++ (≥50 = +++)”.

For “10 (SLDENSDQQV; listed as Homo sapiens) [compound 10]”, the Peptide exchange result is recorded as “+++ (≥50 = +++)”.

For “11 (ALWLPTDSATV; listed as Homo sapiens) [compound 11]”, the Peptide exchange result is “+++ (≥50 = +++)”.

Turning to “13 (SLSPVILGV; listed as Homo sapiens) [compound 13]”, the Peptide exchange entry is given as “++++ (≥75% = ++++)”.

In the case of “14 (RLPNAGTQV; listed as Homo sapiens) [compound 14]”, the Peptide exchange entry is recorded as “++++ (≥75% = ++++)”.

Take “15 (LLANGVYAA; listed as Homo sapiens) [compound 15]”: the Peptide exchange entry is reported as “+ (≥10% = +)”.

As to “16 (VLAEGGEGV; listed as Homo sapiens) [compound 16]”, the Peptide exchange entry is “+++ (≥50 = +++)”.

Turning to “17 (MISRTPEV; listed as Homo sapiens) [compound 17]”, the Peptide exchange result is recorded as “++ (≥20% = ++)”.

Regarding “18 (FLLDQVQLGL; listed as Homo sapiens) [compound 18]”, the Peptide exchange result is given as “+++ (≥50 = +++)”.

As to “21 (IVREFLTAL; listed as Homo sapiens) [compound 21]”, the Peptide exchange result is given as “+++ (≥50 = +++)”.

For the substance “22 (KLNDTYVNV; listed as Homo sapiens) [compound 22]”, the Peptide exchange result was “+++ (≥50 = +++)”.

Take “23 (KLSDSATYL; listed as Homo sapiens) [compound 23]”: the Peptide exchange result is “+++ (≥50 = +++)”.

In the case of “24 (LLFAGTMTV; listed as Homo sapiens) [compound 24]”, the Peptide exchange entry was “++ (≥20% = ++)”.

“25 (LLPPPPPPA; listed as Homo sapiens) [compound 25]”: the Peptide exchange result was “+++ (≥50 = +++)”.

For “26 (MLAEKLLQA; listed as Homo sapiens) [compound 26]”, the Peptide exchange result is given as “+ (≥10% = +)”.

In the case of “27 (NLREGDQLL; listed as Homo sapiens) [compound 27]”, the Peptide exchange result is given as “+++ (≥50 = +++)”.

With “28 (SLDGFTIQV; listed as Homo sapiens) [compound 28]”, the Peptide exchange result was “++ (≥20% = ++)”.

Turning to “30 (SLNGNQVTV; listed as Homo sapiens) [compound 30]”, the Peptide exchange entry is “+ (≥10% = +)”.

As for “31 (VLPKLYVKL; listed as Homo sapiens) [compound 31]”, the Peptide exchange result was “++ (≥20% = ++)”.

Turning to “32 (YMLDIFHEV; listed as Homo sapiens) [compound 32]”, the Peptide exchange entry was “++ (≥20% = ++)”.

As to “33 (GLDVTSLRPFDL; listed as Homo sapiens) [compound 33]”, the Peptide exchange entry is recorded as “+++ (≥50 = +++)”.

In the case of “34 (SLVSEQLEPA; listed as Homo sapiens) [compound 34]”, the Peptide exchange entry is given as “+++ (≥50 = +++)”.

Consider “35 (LLRFSQDNA; listed as Homo sapiens) [compound 35]”, for which the Peptide exchange entry is recorded as “+++ (≥50 = +++)”.

With “36 (FLLRFSQDNA; listed as Homo sapiens) [compound 36]”, the Peptide exchange entry was “++ (≥20% = ++)”.

For the substance “37 (YTQPFSHYGQAL; listed as Homo sapiens) [compound 37]”, the Peptide exchange result was “+++ (≥50 = +++)”.

Take “38 (IAAIRGFLV; listed as Homo sapiens) [compound 38]”: the Peptide exchange entry was “+++ (≥50 = +++)”.

In the case of “39 (LVRDTQSGSL; listed as Homo sapiens) [compound 39]”, the Peptide exchange result is listed as “++ (≥20% = ++)”.

Turning to “40 (GLAFSLYQA; listed as Homo sapiens) [compound 40]”, the Peptide exchange result was “++ (≥20% = ++)”.

For “41 (GLESEELEPEEL; listed as Homo sapiens) [compound 41]”, the Peptide exchange entry is “++ (≥20% = ++)”.

With “42 (TQTAVITRI; listed as Homo sapiens) [compound 42]”, the Peptide exchange result is “+ (≥10% = +)”.

Regarding “43 (KVVGKDYLL; listed as Homo sapiens) [compound 43]”, the Peptide exchange result is “+ (≥10% = +)”.

Take “44 (ATGNDRKEAAENSL; listed as Homo sapiens) [compound 44]”: the Peptide exchange entry was “+++ (≥50 = +++)”.

For “45 (MLTELEKAL; listed as Homo sapiens) [compound 45]”, the Peptide exchange result is on record as “++ (≥20% = ++)”.

On to “46 (YTAQIGADIAL; listed as Homo sapiens) [compound 46]”, for which the Peptide exchange result is on record as “+++ (≥50 = +++)”.

Regarding “48 (SMHQMLDQTL; listed as Homo sapiens) [compound 48]”, the Peptide exchange entry was “++ (≥20% = ++)”.

Regarding “49 (GLMKDIVGA; listed as Homo sapiens) [compound 49]”, the Peptide exchange result is listed as “+++ (≥50 = +++)”.

“51 (KLFGHLTSA; listed as Homo sapiens) [compound 51]”: the Peptide exchange entry is “++ (≥20% = ++)”.

Take “52 (VAIGGVDGNVRL; listed as Homo sapiens) [compound 52]”: the Peptide exchange result was “++ (≥20% = ++)”.

In the case of “53 (VVVTGLTLV; listed as Homo sapiens) [compound 53]”, the Peptide exchange entry was “++ (≥20% = ++)”.

Take “54 (YQDLLNVKM; listed as Homo sapiens) [compound 54]”: the Peptide exchange result is reported as “+++ (≥50 = +++)”.

With “55 (GAIDLLHNV; listed as Homo sapiens) [compound 55]”, the Peptide exchange result is given as “++ (≥20% = ++)”.

Take “56 (ALVEVTEHV; listed as Homo sapiens) [compound 56]”: the Peptide exchange entry was “++ (≥20% = ++)”.

On to “57 (GLAPNTPGKA; listed as Homo sapiens) [compound 57]”, for which the Peptide exchange entry is on record as “+++ (≥50 = +++)”.

For “58 (LILESIPVV; listed as Homo sapiens) [compound 58]”, the Peptide exchange result is on record as “++ (≥20% = ++)”.

As to “59 (SLLDTLREV; listed as Homo sapiens) [compound 59]”, the Peptide exchange result is “+++ (≥50 = +++)”.

On to “60 (VVMEELLKV; listed as Homo sapiens) [compound 60]”, for which the Peptide exchange result was “++ (≥20% = ++)”.

Take “61 (TQTTHELTI; listed as Homo sapiens) [compound 61]”: the Peptide exchange result is “+++ (≥50 = +++)”.

As to “62 (ALYEYQPLQI; listed as Homo sapiens) [compound 62]”, the Peptide exchange result is reported as “++ (≥20% = ++)”.

Turning to “63 (LAYTLGVKQL; listed as Homo sapiens) [compound 63]”, the Peptide exchange result is given as “+++ (≥50 = +++)”.

As to “64 (GLTDVIRDV; listed as Homo sapiens) [compound 64]”, the Peptide exchange result is “++++ (≥75% = ++++)”.

With “65 (YVVGGFLYQRL; listed as Homo sapiens) [compound 65]”, the Peptide exchange entry is listed as “+++ (≥50 = +++)”.

Turning to “66 (LLDEKVQSV; listed as Homo sapiens) [compound 66]”, the Peptide exchange entry is given as “+++ (≥50 = +++)”.

Turning to “67 (SMNGGVFAV; listed as Homo sapiens) [compound 67]”, the Peptide exchange entry is on record as “++ (≥20% = ++)”.

As to “68 (PAVLQSSGLYSL; listed as Homo sapiens) [compound 68]”, the Peptide exchange entry was “++ (≥20% = ++)”.

As for “70 (FVLDTSESV; listed as Homo sapiens) [compound 70]”, the Peptide exchange result was “+++ (≥50 = +++)”.

On to “71 (ASDPILYRPVAV; listed as Homo sapiens) [compound 71]”, for which the Peptide exchange entry is on record as “+++ (≥50 = +++)”.

For “72 (FLPPAQVTV; listed as Homo sapiens) [compound 72]”, the Peptide exchange entry is given as “++ (≥20% = ++)”.

For the substance “73 (KITEAIQYV; listed as Homo sapiens) [compound 73]”, the Peptide exchange entry is recorded as “+++ (≥50 = +++)”.

“74 (ILASLATSV; listed as Homo sapiens) [compound 74]”: the Peptide exchange result is “+++ (≥50 = +++)”.

In the case of “76 (KVADYIPQL; listed as Homo sapiens) [compound 76]”, the Peptide exchange entry is on record as “+++ (≥50 = +++)”.

For the substance “78 (KVANIIAEV; listed as Homo sapiens) [compound 78]”, the Peptide exchange entry was “++ (≥20% = ++)”.

As for “79 (GQDVGRYQV; listed as Homo sapiens) [compound 79]”, the Peptide exchange result is given as “++ (≥20% = ++)”.

“80 (ALQEALENA; listed as Homo sapiens) [compound 80]”: the Peptide exchange result was “++ (≥20% = ++)”.

As for “81 (AVLPHVDQV; listed as Homo sapiens) [compound 81]”, the Peptide exchange result is on record as “+++ (≥50 = +++)”.
